± gives the uncertainty stated by the source.
Experiment: self-splicing fitness, log relative to wild type (ln ratio); higher = more splicing; Tetrahymena group I intron in knt gene, E. coli kanamycin selection, DiMSum; sequences stand for … in CUCUCU…GGAGGGAAAAGUUAUCAGGCAUGCACCUGGUAGCUAGUCUUUAAACCAAUAGAUUGCAUCGGUUUAAAAGGCAAGACCGUCAAAUUGCGGGAAAGGGGUCAACAGCCGUUCAGUACCAAGUCUCAGGGGAAACUUUGAGAUGGCCUUGCAAAGGGUAUGGUAAUAAGCUGACGGACAUGGUCCUAACCACGCAGCCAAGUCCUAAGUCAACAGAUCUUCUGUUGAUAUGGAUGCAGUUCACAGACUAAAUGUCGGUCGGGGAAGAUGUAUUCUUCUCAUAAGAUAUAGUCGGACCUCUCCUUAAUGGGAGCUAGCGGAUGAAGUGAUGCAACACUGGAGCCGCUGGGAACUAAUUUGUAUGCGAAAGUAUAUUGAUUAGUUUUGGAGUACUCGUGGUCG
Summary of the method: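 A randomised library covering all eight P1ex-region intron nucleotides was built with the intron in the knt kanamycin-resistance gene on pET-22b(+) and held in E. coli BL21(DE3). Cells were grown overnight at 37°C or 30°C on LB agar, with or without 25 μg/mL kanamycin, plus 100 μg/mL carbenicillin, 50 μM IPTG and 0.2% rhamnose, and pooled colonies were amplicon-sequenced on an Illumina HiSeq 2500. DiMSum fitness is the error-weighted combination of wild-type-normalised replicate fold changes, kanamycin versus none.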

In the case of UCUUAGCAAUAUUACGUCAG, the “self-splicing fitness (ln)” value (30 °C) is reported as -1.01 ± 0.16 and the “self-splicing fitness (ln)” value (37 °C) is reported as -1.28 ± 0.2.
With AAGAAGCAAUAUUACGUAUU the “self-splicing fitness (ln)” value (30 °C) was -2.28 ± 0.16 and the “self-splicing fitness (ln)” value (37 °C) was -1.43 ± 0.12.
For GUCCAGCAAUAUUACGUAGC, the “self-splicing fitness (ln)” value (30 °C) was -0.399 ± 0.062 and the “self-splicing fitness (ln)” value (37 °C) was -0.149 ± 0.075.
In the case of GAUUAGCAAUAUUACGGCCU, the “self-splicing fitness (ln)” value (30 °C) is reported as -1.39 ± 0.12 and the “self-splicing fitness (ln)” value (37 °C) is reported as -0.323 ± 0.098.
With AUAGAGCAAUAUUACGCAGA the “self-splicing fitness (ln)” value (30 °C) was -2.57 ± 0.21 and the “self-splicing fitness (ln)” value (37 °C) was -1.84 ± 0.16.
In the case of UCGGAGCAAUAUUACGUUGA, the “self-splicing fitness (ln)” value (30 °C) is reported as -2.58 ± 0.25 and the “self-splicing fitness (ln)” value (37 °C) is reported as -1.22 ± 0.16.
In the case of CACUAGCAAUAUUACGACGU, the “self-splicing fitness (ln)” value (30 °C) is reported as -2.27 ± 0.14 and the “self-splicing fitness (ln)” value (37 °C) is reported as -1.8 ± 0.11.
In the case of CCUUAGCAAUAUUACGGUCA, the “self-splicing fitness (ln)” value (37 °C) is reported as -3.63 ± 0.37.
With GCUGAGCAAUAUUACGCAAA the “self-splicing fitness (ln)” value (30 °C) was -4.1 ± 0.39 and the “self-splicing fitness (ln)” value (37 °C) was -1.55 ± 0.29.
In the case of ACCGAGCAAUAUUACGACGC, the “self-splicing fitness (ln)” value (30 °C) is reported as -0.285 ± 0.089 and the “self-splicing fitness (ln)” value (37 °C) is reported as -0.16 ± 0.11.
With AACCAGCAAUAUUACGUUCU the “self-splicing fitness (ln)” value (30 °C) was -1.15 ± 0.043 and the “self-splicing fitness (ln)” value (37 °C) was -0.678 ± 0.053.
In the case of GAAUAGCAAUAUUACGGGAG, the “self-splicing fitness (ln)” value (37 °C) is reported as -3.35 ± 0.33.
For AACUAGCAAUAUUACGGCCG, the “self-splicing fitness (ln)” value (30 °C) was -0.725 ± 0.1 and the “self-splicing fitness (ln)” value (37 °C) was 0.273 ± 0.13.
In the case of CUACAGCAAUAUUACGAUUG, the “self-splicing fitness (ln)” value (30 °C) is reported as -0.678 ± 0.055 and the “self-splicing fitness (ln)” value (37 °C) is reported as -0.0365 ± 0.078.
For GACCAGCAAUAUUACGAGUA, the “self-splicing fitness (ln)” value (30 °C) was -1.03 ± 0.087 and the “self-splicing fitness (ln)” value (37 °C) was 0.128 ± 0.084.
In the case of AGCGAGCAAUAUUACGGUGA, the “self-splicing fitness (ln)” value (30 °C) is reported as -3.59 ± 0.21 and the “self-splicing fitness (ln)” value (37 °C) is reported as -2.77 ± 0.15.
For UCAAAGCAAUAUUACGUUAU, the “self-splicing fitness (ln)” value (30 °C) was -3.43 ± 0.18 and the “self-splicing fitness (ln)” value (37 °C) was -3.37 ± 0.35.
With AAUUAGCAAUAUUACGAACU the “self-splicing fitness (ln)” value (30 °C) was 0.296 ± 0.1 and the “self-splicing fitness (ln)” value (37 °C) was 0.321 ± 0.14.
With AGCGAGCAAUAUUACGGUAC the “self-splicing fitness (ln)” value (30 °C) was -3.58 ± 0.36.
For CAACAGCAAUAUUACGCUGC, the “self-splicing fitness (ln)” value (30 °C) was -3.4 ± 0.23 and the “self-splicing fitness (ln)” value (37 °C) was -2.21 ± 0.36.
In the case of GGGUAGCAAUAUUACGUCAU, the “self-splicing fitness (ln)” value (30 °C) is reported as -0.733 ± 0.07 and the “self-splicing fitness (ln)” value (37 °C) is reported as -0.742 ± 0.081.
In the case of AGGCAGCAAUAUUACGGACG, the “self-splicing fitness (ln)” value (30 °C) is reported as -0.899 ± 0.067 and the “self-splicing fitness (ln)” value (37 °C) is reported as -0.218 ± 0.095.
In the case of CAAGAGCAAUAUUACGCCAC, the “self-splicing fitness (ln)” value (30 °C) is reported as -2.38 ± 0.36.
For GUUCAGCAAUAUUACGACUA, the “self-splicing fitness (ln)” value (30 °C) was -1.28 ± 0.17 and the “self-splicing fitness (ln)” value (37 °C) was -0.368 ± 0.15.
In the case of ACCCAGCAAUAUUACGCCUG, the “self-splicing fitness (ln)” value (30 °C) is reported as -2.21 ± 0.12 and the “self-splicing fitness (ln)” value (37 °C) is reported as -3 ± 0.26.
With AAAGAGCAAUAUUACGGCUC the “self-splicing fitness (ln)” value (30 °C) was -2.64 ± 0.21 and the “self-splicing fitness (ln)” value (37 °C) was -1.67 ± 0.21.
With AAGCAGCAAUAUUACGACCA the “self-splicing fitness (ln)” value (30 °C) was -0.635 ± 0.12 and the “self-splicing fitness (ln)” value (37 °C) was -0.265 ± 0.14.
In the case of AUAAAGCAAUAUUACGUGAU, the “self-splicing fitness (ln)” value (30 °C) is reported as -1.64 ± 0.074 and the “self-splicing fitness (ln)” value (37 °C) is reported as -0.793 ± 0.11.
In the case of UAAGAGCAAUAUUACGUCUC, the “self-splicing fitness (ln)” value (30 °C) is reported as -4.3 ± 0.34 and the “self-splicing fitness (ln)” value (37 °C) is reported as -2.31 ± 0.21.
In the case of GAAAAGCAAUAUUACGUAAU, the “self-splicing fitness (ln)” value (30 °C) is reported as -1.78 ± 0.066 and the “self-splicing fitness (ln)” value (37 °C) is reported as -1.47 ± 0.087.
For CUUGAGCAAUAUUACGACGU, the “self-splicing fitness (ln)” value (30 °C) was -3.62 ± 0.35 and the “self-splicing fitness (ln)” value (37 °C) was -2.25 ± 0.21.
For UAGCAGCAAUAUUACGGCGA, the “self-splicing fitness (ln)” value (30 °C) was -0.238 ± 0.077 and the “self-splicing fitness (ln)” value (37 °C) was 0.939 ± 0.1.
In the case of AAUAAGCAAUAUUACGUUGU, the “self-splicing fitness (ln)” value (30 °C) is reported as -3.22 ± 0.14 and the “self-splicing fitness (ln)” value (37 °C) is reported as -2.51 ± 0.19.
With UCUCAGCAAUAUUACGAGAU the “self-splicing fitness (ln)” value (30 °C) was -4.62 ± 0.46 and the “self-splicing fitness (ln)” value (37 °C) was -2.85 ± 0.35.
For UGGAAGCAAUAUUACGGACG, the “self-splicing fitness (ln)” value (30 °C) was -1.13 ± 0.16 and the “self-splicing fitness (ln)” value (37 °C) was 0.0618 ± 0.28.
For AUAUAGCAAUAUUACGCUGU, the “self-splicing fitness (ln)” value (30 °C) was -2.9 ± 0.22 and the “self-splicing fitness (ln)” value (37 °C) was -2.32 ± 0.21.
In the case of UGACAGCAAUAUUACGUUAA, the “self-splicing fitness (ln)” value (30 °C) is reported as -0.645 ± 0.1 and the “self-splicing fitness (ln)” value (37 °C) is reported as -1.16 ± 0.09.
In the case of AUAUAGCAAUAUUACGCGGG, the “self-splicing fitness (ln)” value (30 °C) is reported as -2.72 ± 0.38 and the “self-splicing fitness (ln)” value (37 °C) is reported as -1.33 ± 0.22.
With AGAGAGCAAUAUUACGGUCU the “self-splicing fitness (ln)” value (30 °C) was -3.2 ± 0.15 and the “self-splicing fitness (ln)” value (37 °C) was -2.71 ± 0.29.
With AUGCAGCAAUAUUACGAUAC the “self-splicing fitness (ln)” value (30 °C) was -2.96 ± 0.38.
For AUAGAGCAAUAUUACGUAUC, the “self-splicing fitness (ln)” value (30 °C) was -2.94 ± 0.37 and the “self-splicing fitness (ln)” value (37 °C) was -2.16 ± 0.43.
With CUUCAGCAAUAUUACGUCGC the “self-splicing fitness (ln)” value (30 °C) was -2.22 ± 0.36 and the “self-splicing fitness (ln)” value (37 °C) was -2.3 ± 0.42.
For CACUAGCAAUAUUACGUGCC, the “self-splicing fitness (ln)” value (30 °C) was -4.04 ± 0.46 and the “self-splicing fitness (ln)” value (37 °C) was -2.17 ± 0.29.
In the case of CUGAAGCAAUAUUACGGAGU, the “self-splicing fitness (ln)” value (30 °C) is reported as -3.2 ± 0.37 and the “self-splicing fitness (ln)” value (37 °C) is reported as -2.33 ± 0.26.
In the case of UGGAAGCAAUAUUACGGAGU, the “self-splicing fitness (ln)” value (30 °C) is reported as -3.51 ± 0.22 and the “self-splicing fitness (ln)” value (37 °C) is reported as -2.75 ± 0.22.
For AAACAGCAAUAUUACGGCGG, the “self-splicing fitness (ln)” value (30 °C) was -2.4 ± 0.088 and the “self-splicing fitness (ln)” value (37 °C) was -1.35 ± 0.092.
In the case of UACUAGCAAUAUUACGGGCC, the “self-splicing fitness (ln)” value (30 °C) is reported as -3.27 ± 0.17 and the “self-splicing fitness (ln)” value (37 °C) is reported as -3.17 ± 0.23.
With AGUGAGCAAUAUUACGGGCC the “self-splicing fitness (ln)” value (30 °C) was -3.49 ± 0.4 and the “self-splicing fitness (ln)” value (37 °C) was -2.02 ± 0.34.
For AGCUAGCAAUAUUACGCCGU, the “self-splicing fitness (ln)” value (30 °C) was -1.23 ± 0.13 and the “self-splicing fitness (ln)” value (37 °C) was -1.2 ± 0.16.
With GUUGAGCAAUAUUACGUCUC the “self-splicing fitness (ln)” value (37 °C) was -0.823 ± 0.46.

Reference: the supplement of paper PMC7877785
